Earlier results, collected in doi:10.1101/2025.05.26.656075.

Biological target: neonatal Fc receptor (FcRn), biotinylated (UniProt P55899+P61769)
Experiment: not stated
Settings: cited from earlier work

Row | Substance | KD (pH 6.0) | KD (pH low pH (number not given)) | KD (pH neutral pH (number not given))
1 | MFc4 (IgG4 monomeric Fc of Shan et al.) L351F;S354E;T366R;P395K;F405R;Y407E;L428M;L432C;H433S;N434Y;Y436L;T437C;delQ438 (as printed) | 5 nM |  | 
2 | native dimeric human IgG1 / IgG1 Fc (literature values) | 2,140 nM | 1,377 nM | ∼88,000 nM
